Assay: yeast display, Sf9 membrane polyspecificity reagent, FACS + sequencing; frameworks hold sequencing errors
Outline: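 Using colony PCR, genes from sorted yeast display clones were amplified, then sequenced on MiSeq at 2 × 250 and filtered by CDR length. The clones had been stained with 10% biotinylated, detergent-solubilized Sf9 membrane reagent for 1 hour at 4 °C and sorted by FACS into low and high (top ~1%) gates on anti-HA and streptavidin fluorescence. Polyreactivity labels come from the gate of origin.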

Sequence	polyreactivity (PSR sort gate)
QVQLVESGGGLVQAGGSLRLSCAASGSIFGANTMGWYRQAPGKERELVAAISSGGNTYYADSVKGRFTISRDNAKNTVYLQMNSLKPEDTAVYYCAVGAYWYFGFVSYGYDYCGQGTQVTVSS	low polyreactivity
QVQLVESGGGLVQAGGSLRLSCAASGSIFGANTMGWYRQAPGKERELVAGITSGARTYYADSVKGRFTISRDNAKNTVYLQMNSLKPEDTAVYYCAAKYAWRRYGYWGQGTQVTVSS	high polyreactivity
QVQLVESGGGLVQAGGSLRLSCAASGSIFGANVMGWYRQAPGKERELVAAISFSGGSTFYADSVKGRFTISRDNAKNTVYLQMNSLKPEDTAVYYCAASYGGKGVKYYYWGQGTQVTVSS	high polyreactivity
QVQLVESGGGLVQAGGSLRLSCAASGSIFGAYAMGWYRQAPGKERELVAAITSGGSTNYADSVKGRFTISRDNAKNTVYLQMNSLKPEDTAVYYCAARRRYAKFRYDYWGQGTQVTVSS	high polyreactivity
QVQLVESGGGLVQAGGSLRLSCAASGSIFGAYAMGWYRQAPGKERELVAAITWRGGSTYYADSVKGRFTISRDNAKNTVYLQMNSLNPEDTAVYYCATDTWGSYYDDDDYWGQGTEVTVSS	high polyreactivity
QVQLVESGGGLVQAGGSLRLSCAASGSIFGAYAMGWYRQAPGPESELVATITLRDGSTYYADSVKGRFTISRDNAKNTVYLQLNSLKPEDTAVYYCATYYSAINYGSSTTILYDYWGQGTQVSVSS	low polyreactivity
QVQLVESGGGLVQAGGSLRLSCAASGSIFGAYAMRWYRQAPGKERELVAAISYGGGNTYYADSVKGRFTISRDNAKNTVYLQMNSLKPEDTAFYYCNALFPRVSGSTYRYNYWGQGTQVTVSS	high polyreactivity
QVQLVESGGGLVQAGGSLRLSCAASGSIFGDYAMGWYRQAPGKERELVADISSGGSTTYADSVTGRFTISRDNAKNTVYLQMNSLKPEDTAVYYCAVDGGDFSSYGNWGQGTQVTVSS	low polyreactivity
QVQLVESGGGLVQAGGSLRLSCAASGSIFGEYAMGWYRQAPGKERELVATIRQSGDSTYYAVSVKGRFTISRDTAKNTVYLQMNSLKPEDTAVYYCAADLWLYDYYSEYDYWGPGTQVTVSS	low polyreactivity
QVQLVESGGGLVQAGGSLRLSCAASGSIFGEYAMGWYRQAPGKERELVATISWSAGSTYYADSVKGRFTISRDYAKNTVYLQMNSLKPEDTAVYYCAAAYDGYYLSTFDSWGQGTQVTVSS	low polyreactivity
QVQLVESGGGLVQAGGSLRLSCAASGSIFGFNAMGWYRQAPGKERELVAGITSGDRTNYADSVKGRFTISRDNAKNTVYLQMNSLKPEDTAVYYCAARKYVFFKMYYWGQGTQVTVSS	low polyreactivity
QVQLVESGGGLVQAGGSLRLSCAASGSIFGFYAMGWDRQAPGKERELVAAIRWRDGRTYYADSVKGRFTISRDNAKNTVYLQMNSLKPEDTAVYYCAAGTPWAYDYWGQGTQVTVSS	high polyreactivity
QVQLVESGGGLVQAGGSLRLSCAASGSIFGFYAMGWYRQAPGKERELVASISSSGDSTYYADSVKGRFTISRDNAKNTVYLQMNSLKPEDTAVYYCAAVVYDIYGYEFDYWGQGTQVTVSS	low polyreactivity
QVQLVESGGGLVQAGGSLRLSCAASGSIFGFYGMGWYRQAPGKERELVAAISSRGGNTYYADSVKGRFTISRDNAKNTVYLQMNSLKPEDTAVYYCNAYRYVRHYSFDYWGQGTQVTVSS	high polyreactivity
QVQLVESGGGLVQAGGSLRLSCAASGSIFGFYVMGWYRQAPGKERELVAAISRGGTRTYYAVSVKGRFTISRDNAKNTVYLKMNSLKPEDTAVYYCAKYEGGSCTGPRSDYWGQGTQVTVSS	high polyreactivity
QVQLVESGGGLVQAGGSLRLSCAASGSIFGGNAMGWYRQAPGKERELVAAITSRGGSTYYADSVKGRFTISRDNAKNTVYLQMNSLKPEDTAVYYCNALSSGVYLYDYWGQGTQVTVSS	high polyreactivity
QVQLVESGGGLVQAGGSLRLSCAASGSIFGGYAMGWYRQAPGKERELVAAISGSGGSTYYADSVKGRFTISRDNAKNTVYLQMNSLKPEDTAVYYCAADSNKYGYEYDYWGQGTQVTVSS	low polyreactivity
QVQLVESGGGLVQAGGSLRLSCAASGSIFGGYAMGWYRQAPGKERELVAAISRSGASTYYADSVKGRFTISRDNAKNTVYLQMNSLKPVDTAVYYCAAYALRGVRYPYRVDFYYWGQGTQVTVSS	high polyreactivity
QVQLVESGGGLVQAGGSLRLSCAASGSIFGGYAMGWYRQAPGKERELVAAISWSSSSTYYADSVKGRFTISRDNAKNTVFLQMISLKPEDTAVYYCATGIYPQTSDYVYWGQGTQVTVSS	low polyreactivity
QVQLVESGGGLVQAGGSLRLSCAASGSIFGGYDMGWYRQAPGTERELVAAITRDGDTNYADSVKGRFTISRDNAKNTVYLQMNSLKPEDTAVYYCAADRWLYSWFFNYDQGDYWGQGTQVTVSS	low polyreactivity
QVQLVESGGGLVQAGGSLRLSCAASGSIFGGYGMGWYRQAPGTERELVAAITSGSSTYYADSVKGRFTISRDNAKNTVYLQMNSLKPEDTAVYYCAARPYPHSAYEGDYWGRGTQVTVSS	low polyreactivity
QVQLVESGGGLVQAGGSLRLSCAASGSIFGGYTMGWYRQAPGKERELVAAISRRGGNTYYADSVKGRFTISRDNAKNTVYLQMKSLKPEDTAVYYCAVRWPSARIPVKLDYWGQGTQVTVSS	high polyreactivity

Sequence	polyreactivity (PSR sort gate)
QVQLVESGGGLVQAGGSLRLSCAASGSIFGHYAMGWYRQATGKERELVATISRRGGSTYYADSVKVRFTISRDNAKNTVYLQMNSLKPEDTAVYYCAADSKGSLYGYWGQGTQVTVSS	high polyreactivity
QVQLVESGGGLVQAGGSLRLSCAASGSIFGINAMGWYRQAPGKERELVAAITWSGGSTFYADSVKGRFTISRDNAKNTVYLQMNSLKPEDTAVYYCAASYSRWYWLYTSDYWGQGTQVTVSS	high polyreactivity
QVQLVESGGGLVQAGGSLRLSCAASGSIFGIYAMGWYRQAPGKERELVAAISRSGGRTYYADSVKGRFTISRDNAKNTVYLQMNSLKPEDTAVYYCAARPPGGYLYDYWGQGTQVTVSS	high polyreactivity
QVQLVESGGGLVQAGGSLRLSCAASGSIFGIYAMGWYRQAPGKERELVATITGRGGSTYYADSVKGRFTISRDNAKNTVYLQMNSLKPEDTAVYYCNAGGRSARYFWGGYWGQGTQVTVSS	high polyreactivity
QVQLVESGGGLVQAGGSLRLSCAASGSIFGIYARGWYRQAPGKEREFVATITLGGGNTYYADSVKGRFTISRDYAKNTVYLQMNSLKPEDTAVYYCAARYFGLKRYDDYWGQGTQVTVSS	high polyreactivity
QVQLVESGGGLVQAGGSLRLSCAASGSIFGKNAMGWYRQAPGKERELVAAITWSGGSTYYADSVKGRFTISRDNAKNTVYLQMNSLKPEDTAVYYCNAVRVRVTSHRIRQLDYGYWGQGTQVTVSS	low polyreactivity
QVQLVESGGGLVQAGGSLRLSCAASGSIFGKNAMGWYRQAPGKERELVASITWDGSSTYYADSVKGRFTISRDNAKNTVYLQMNSLKPEDTAVYYCNADYHVQYEYYPYDYWGQGTQVTVSS	low polyreactivity
QVQLVESGGGLVQAGGSLRLSCAASGSIFGKYTMGWYRQAPGKERELVAAITSGGSTNYADSVKGRFTISRDNAKNSVYLQMNSLKPEDTSVYYCAAPGTWIPSSTECGDGYDYWGQGTQVTVSS	low polyreactivity
QVQLVESGGGLVQAGGSLRLSCAASGSIFGLNAMGWYRQAPGKERELVAAISVSGTRTYYADSVKGRFTISRDNAKNTGYLQMNSLKPEDTAVYYCAAYSYSSSFGYRYDYWGQGTQVTVSS	high polyreactivity
QVQLVESGGGLVQAGGSLRLSCAASGSIFGLYAMGWYRPAPGKERELVAAISRTGGSTYYADSVKGRFTLSRDNAKNTVYFQMHSLKPEETAVYYCAAKYQYTQYDYWGQGTQVTVSS	high polyreactivity
QVQLVESGGGLVQAGGSLRLSCAASGSIFGLYAMGWYRQAPGKERELVAAISGSGSRTYYADSVKGRFTISRDNAKNTVYLQMNSLKPEDTAVYYCAADRYWYGVHASIYYYWGQGTQVTVSS	high polyreactivity
QVQLVESGGGLVQAGGSLRLSCAASGSIFGLYGMGWYRPAAGKERELLAAITGRGGSTYYADSVKGRFTISRDNAKITVYLQMNSLKPEDTAVYYCAALRYTFAGRFDYWGQGTQVNVSS	high polyreactivity
QVQLVESGGGLVQAGGSLRLSCAASGSIFGLYTMGWYRQAPGKERELVAAIDSGDSTNYADSVKGRFTISRDNEKNTVYLQMNSLKQEDTAVYYCNALGEYPYYSSFWYESWGQGTQVTVSS	low polyreactivity
QVQLVESGGGLVQAGGSLRLSCAASGSIFGLYTMGWYRQAPGKERELVAAISGGGGSTYYADSVKGRFTISRDNAKNTVYLQMNSLKPEDTAVYYCAADLELSEWYDYWGQGTQVTVSS	low polyreactivity
QVQLVESGGGLVQAGGSLRLSCAASGSIFGNNAMGWYRQAPGKERELVAAISSGGSTNYADSVKGRFTISRDNAKNTVYLQMNSLKPEDTAVYYCATYYFYPSWYLLYGEYNYWGQGTQVTVSS	low polyreactivity
QVQLVESGGGLVQAGGSLRLSCAASGSIFGNNAMGWYRQAPGKERELVAAITSSGGSTYYADSVKGRFTISRDNAKNTVYLQMNSLKPEDTAVYYCATEWSGYTYWFYEWEYGYWGQGTQVTVSS	high polyreactivity
QVQLVESGGGLVQAGGSLRLSCAASGSIFGNNAMGWYRQAPGKERELVAGINYSGGRTYYADSVKGRFTISRDNAKNTVYLQMNSLKPEDTAVYYCAADGHRQVGWWRFEYGYWGQGTQVTVSS	low polyreactivity
QVQLVESGGGLVQAGGSLRLSCAASGSIFGNNAMGWYRQAPGKERELVATISYSGDSTYYADSVKGRFTISRDNAKNTVYLQMNSLKPEDTAVYYCAKQSDWVYKDRAYDYWGQGTQVTVSS	low polyreactivity
QVQLVESGGGLVQAGGSLRLSCAASGSIFGPNAMGWYRQAPGKERELVAAITNGGRTNYADSVKGRFTISRDNAKNTVYLQMNSLKPEDTAVYYCNKARYGTDDYDYWGQGTQVTVSS	low polyreactivity
QVQLVESGGGLVQAGGSLRLSCAASGSIFGPNAMGWYRQAPGKESELVAAITLSGGSTYYADSVKGRFTISRDNAKNTVYLQMYSLKPEDTAVYYCNADLLPADAPLWVTGGDYWGQGTQVTVTS	low polyreactivity
QVQLVESGGGLVQAGGSLRLSCAASGSIFGPNSMGWYRQAPGKERELVAAISWTGGRTYYADSVKGRFTISRDNAKNTVYLQMNSLKPEDTAVYYCAVKGHPWGQGTQVTVSS	low polyreactivity

From the nanobody polyreactivity screen of Harvey et al. (2022)
